{"source": "patent US20110060580A1", "about": "(published 2011)", "binders": {"B1": {"name": "human LXRβ-LBD (liver X receptor beta ligand binding domain, amino acids 213-461 of Seq. Id. No. 1) (receptor)", "chain": "GEGEGVQLTAAQELMIQQLVAAQLQCNKRSFSDQPKVTPWPLGADPQSRDARQQRFAHFTELAIISVQEIVDFAKQVPGFLQLGREDQIALLKASTIEIMLLETARRYNHETECITFLKDFTYSKDDFHRAGLQVEFINPIFEFSRAMRRLGLDDAEYALLIAINIFSADRPNVQEPGRVEALQQPYVEALLSYTRIKRPQDQLRFPRMLMKLVSLRTLSSVHSEQVFALRLQDKKLPPLLSEIWDVHE", "notes": "The His tag was removed by thrombin before crystallization; Id; No. 1; Each crystal also held a small-molecule agonist; also called LXR-LBD; hLXRbeta213G-460E"}}, "key": {"[1]": {"target": "B1", "test": "X-ray co-crystal structure (Example 3, space group P1)", "procedure": "Protein used for crystallization of LXRβ-LBD together with - (R,S)-Benzenesulfonyl-(6chloro-2,3,4,9-tetrahydro-1H-carbazol-2-yl)-fluoro-acetic acid methyl ester has been purified as described above. The protein was incubated with ligand in a 15-fold molar excess for 2 hours at room temperature. A short co-activator peptide ([…]) (Seq. Id. No. 4) from SRC-1 was added in 3-fold molar excess and incubation continued overnight at 4 ° C. Prior to crystallization experiments the protein was concentrated to 12 mg/ml and centrifuged at 20000 ×g. The crystallization droplet was set up at room temperature by mixing 1.5 μl of protein solution with 0.5 μl reservoir solution in vapour diffusion hanging drop experiments. Crystals appeared out of 0.1 M Bis-Tris pH 5.5, 0.2 M (NH⁴⁾²SO₄, 25% PEG 3350 after 1 day and grew to final size of 0.2 mm×0.1 mm×0.05 mm within 2 days.\nCrystals were harvested with paraffin oil as cryoprotectant and then flash frozen in a 100 K N₂ stream. Diffraction images were collected at a temperature of 100 K at the beamline X06SA of the Swiss Light Source and processed with the programs DENZO and […] yielding data to a resolution of 2.3 Å. Standard crystallographic programs from the CCP4 software suite were used to determine the structure by molecular replacement using an in-house LXR-LBD structure as search model. […]"}, "[2]": {"target": "B1", "test": "X-ray co-crystal structure (Example 1, space group P43)", "procedure": "(§1) Protein used for crystallization of LXRβ-LBD together with 2-(4-{[2-(3-Chloro-phenyl)-5-methyl-oxazol-4-ylmethyl]-ethyl-amino }-phenyl)-1,1,1,3,3,3-hexafluoro-propan-2-ol has been purified as described above. The protein was incubated with ligand in a 12-fold molar excess for 2 hours at room temperature. A short co-activator peptide ([…]) (Seq. Id. No. 3) from SRC-1 was added in 12-fold molar excess and incubation continued overnight at 4 ° C. Prior to crystallization experiments the protein was centrifuged at 20000× g. The crystallization droplets were set up at 22 ° C. by mixing 1.5 μl of protein solution with 0.5 μl reservoir solution in vapour diffusion hanging drop experiments. Crystals appeared out of 0.2 M (NH₄)₂SO₄, 25% PEG 3350 after 1 day and grew to final size of 0.15 mm×0.15 mm×0.05 mm within 2 days.\n(§2) Crystals were harvested with paraffin oil as cryoprotectant and then flash frozen in a 100 K N2 stream. Diffraction images were collected at a temperature of 100 K at the beamline X06SA of the Swiss Light Source and processed with the programs DENZO and […] yielding data to a resolution of 3.2 Å. Standard crystallographic programs from the CCP4 software suite were used to determine the structure by molecular replacement using an in-house LXRβ-LBD structure as search model. Refinement and model building cycles were performed with REFMAC and MOLOC, respectively (Table 1)."}, "[3]": {"target": "the molecule itself", "test": "X-ray co-crystal structure (Example 1); homodimer", "procedure": "as §1, §2"}}, "data": [{"binder": "ERHKILHRLLQEG (13-residue peptide from SRC-1)", "note": "[short co-activator peptide (ERHKILHRLLQEG) (Seq. Id. No. 4) from SRC-1]", "values": [{"measurement": "binding result", "setting": "[1]", "value": "binds"}]}, {"binder": "KDHQLLRYLLDKD (13-residue peptide from SRC-1)", "note": "[short co-activator peptide (KDHQLLRYLLDKD) (Seq. Id. No. 3) from SRC-1]", "values": [{"measurement": "binding result", "setting": "[2]", "value": "binds"}]}, {"binder": "B1", "values": [{"measurement": "binding result", "setting": "[3]", "value": "binds"}]}]}
